Laboratory results: publication PMC1952068
Values joined by “and” are separate entries in the source; they are usually repeats but may differ in a detail not shown here. Equal values may be shown once.

Key:
Assay in all cases: fluorescence polarization
Conditions in all cases: 10 mM Tris-HCl pH 7.5, 50 mM NaCl, no Mg2+, room temperature; FP: 1 nM duplex, 0.1 mg/mL BSA, 20 min; EMSA: 250 nM enzyme, 15 min, 6% gel
R.Eco29kI R86A = system: R.Eco29kI R86A
R.Eco29kI Y49A = system: R.Eco29kI Y49A
R.Eco29kI wt = system: R.Eco29kI wt

With “TTTTGGTACCGCGGCCGCAAGCTT (double strand) [24-bp duplex with Eco29kI site]” the Kd (R.Eco29kI R86A) was 21 nM and 344 nM^n, the Kd (R.Eco29kI Y49A) was 49 nM and 529 nM^n and the Kd (R.Eco29kI wt) was 16 nM and 299 nM^n.
